From the DeepSol protein solubility set

assay: soluble on expression in E. coli; label from the status in PepcDB or PDB records

Q: With “MRAASTSKPVGAHEETGHLGGAHSTYVSSAQVTNAEHENELQVVDLPRAPPSLSKAVTYFYITGFGRFALMEDNPTERVVLRLREILQDPGRVQMLHERLVRIVDLRILEVSAAAAHETLAEMKTQCLQMRQKPNISSDGRNRTVCFLHLGVDASADGFLVERSAVNEALFRFPDERGWQPTTPIPIVRGAQLGARYELDGEALASLCERTESLLNEWGRTNWTVRVNDDAGRFLCNYLFYLSAFEGLAENGHHLWQTFFLHCPMETVAPLDVQVDVVLAFMVAVAQSNAQQGPLEGILAR” as the sequence, how does the “soluble on expression in E. coli” value read?
A: Its value is “soluble”.

Q: For “MRAELNQGLIDFLKASPTPFHATASLARRLEAAGYRRLDERDAWHTETGGRYYVTRNDSSLIAIRLGRRSPLESGFRLVGAHTDSPCLRVKPNPEIARNGFLQLGVEVYGGALFAPWFDRDLSLAGRVTFRANGKLESRLVDFRKAIAVIPNLAIHLNRAANEGWPINAQNELPPIIAQLAPGEAADFRLLLDEQLLREHGITADVVLDYELSFYDTQSAAVVGLNDEFIAGARLDNLLSCHAGLEALLNAEGDENCILVCTDHEEVGSCSHCGADGPFLEQVLRRLLPEGDAFSRAIQRSLLVSADNAHGVHPNYADRHDANHGPALNGGPVIKINSNQRYATNSETAGFFRHLCQDSEVPVQSFVTRSDMGCGSTIGPITASQVGVRTVDIGLPTFAMHSIRELAGSHDLAHLVKVLGAFYASSELP”, which “soluble on expression in E. coli” value is on record?
A: Its value is “not soluble”.

Q: Which “soluble on expression in E. coli” value does the source give for “MRALALDVGLKRIGVALCIDKKIALPLDAVLRKNRNQAANEIKNLLKIHEISLLIVGIPKGGSSEEEMTRRIKHFVSLLEFDKEICFVDESGTSKEALGYGVANTRKKDGKLDSLSAFIMIKDYFALLEHHHHHH” here?
A: Its value is “not soluble”.

Q: With “MRALREKTSMSQGVEFNRLMLDMRAMQMDAMSAPKPVSGAQEAGASSFADMLGQAVNKVAQTQQASSQLANAFEVGKSGIDLTDVMISSQKASVSFQALTQVRNKLVQAYQDIMQMPV” as the sequence, how does the “soluble on expression in E. coli” value read?
A: Its value is “not soluble”.

Q: With “MRALRLLTRQEYQNTVNDLLGLSENLVHLLPEENRVDGFDNNVATNLVTSIRLEAFLTQAEALAAKAVQQNWNALLPCTQQDLEHHHHHH” as the sequence, how does the “soluble on expression in E. coli” value read?
A: Its value is “not soluble”.

Q: Which “soluble on expression in E. coli” value does the source give for “MRAVIPYKKAGAKSRLSPVLSLQEREEFVELMLNQVISSLKGAGIEQVDILSPSVYGLEEMTEARVLLDEKDLNEALNRYLKEAEEPVLIVMADLPLLSPEHIKEISSTEKDVCIVPGKGGGTNALFIKNPSKYRVKYYGSSFLTHCSIATDSGQDFEIYDSFMAGTDIDEPEDLVELLIHGKGAAKDYIESKFRLEVKKGRVGLVPL” here?
A: The value was “soluble”.

Q: Which “soluble on expression in E. coli” value does the source give for “MRAVRLVEIGKPLSLQEIGVPKPKGPQVLIKVEAAGVCHSDVHMRQGRFGNLRIVEDLGVKLPVTLGHEIAGKIEEVGDEVVGYSKGDLVAVNPLQGEGNCYYCRIGEEHLCDSPRWLGINFDGAYAEYVIVPHYKYMYKLRRLNAVEAAPLTCSGITTYRAVRKASLDPTKTLLVVGAGGGLGTMAVQIAKAVSGATIIGVDVREEAVEAAKRAGADYVINASMQDPLAEIRRITESKGVDAVIDLNYSEKTLSVYPKALAKQGKYVMVGLFGADLHYHAPLITLSEIQFVGSLVGNQSDFLGIMRLAEAGKVKPMITKTMKLEEANEAIDNLENFKAIGRQVLIP” here?
A: The value was “soluble”.

Q: With “MRDLYPLTRRRLLTAMALSPLLWQMNTAQAAAIDPRRIVALEWLPVELLLALGITPYGVADVPNYKLWVSEPPLPDSVIDVGLRTEPNLELLTEMKPSFMVWSAGYGPSPEKLARIAPGRGFDFSDGKKPLAVARRSLVELAQTLNLEAAAEKHLAQYDRFIASQKPHFIRRGGRPLLMTTLIDPRHMLVLGPNCLFQEVLDEYGIVNAWQGETNFWGSTAVSIDRLAMYKEADVICFDHGNNTDMNALMATPLWQAMPFVRAGRFHRVPAVWFYGATLSTMHFVRILNNVLGGKA” as the sequence, how does the “soluble on expression in E. coli” value read?
A: The value was “not soluble”.

Q: With “MRDRLLAAEKVKAIDWRDDALYLLDQRVLPFEEVWHRYTTAAGVAEAIRTMVVRGAPAIGISAAYGAVLGARARIAEGGDWYPALEEDMQLLADSRPTAVNLFWALNRIRDRLMRVKNGDNPLAALEAEAVAIHLSDREANLTMAQLGADLIRKHQGNLQTVLTHCNTGALATGGFGTALGVIRAAHLEGMIERVYADETRPWLQGSRLTAWELANEGIPVTLNADSAAAHLMRTKGITWVIVGADRITANGDVANKIGTYQLAVAAMHHGVRFMVVAPSSTIDMEMASGDDIIIEERDGRELLEVGGQRVGADVEAFNPVFDVTPADLIDAIVTEKGIVERPDTARMAQLMSRKHLHLEHHHHHH” as the sequence, how does the “soluble on expression in E. coli” value read?
A: Its value is “soluble”.

Q: With “MREPGFWHRPPSLVSRLLLPIAAIYGNIAAARMQKAGTTVGVPVLCVGNYHMGGAGKTPTTLALVALLREFGETPVVLSRGYGGRLQGPVQVDPSRHSAADIGDEPLMMARRVPVVVARDRTDGAALACALGATVILMDDGFQNPALTKDASLIVVDSHRSIGNGSVFPAGPLRAPLPLQVARTDALVVVGDGTAADGLAQQITTKGGVVLRARLVPEPASVEALRGRRVLAFAGIGDPARFVATLRDSGVEVVEQRAFADHHPFTAEELAELAAAAKRDGLTLVTTEKDLARIGGAQQALGVEIVPFAVTLAFGDEAKLRLFLLDRLNGARAAKLAGRRMAGDPLEHHHHHH” as the sequence, how does the “soluble on expression in E. coli” value read?
A: The value was “not soluble”.

Q: For “MREVEPLAERLRPRSLDEVLGQPHLTGPQGLLRRMLEAGRLSSMVLFGPPGTGKTTLARLLAEGVGRPFLRLSAVEAGLKEVRQAVEEARAKGGLVLFLDEVHRFNKAQQDALLPHLESGLLTLIGATAENPAFALVPALRSRLRFFPLRPLEEADLLALLRRALEDPRGLPGTPYEEEALRVLAQAAGGDARFALNTLELAASFGRVDLKSVREALGAERFGMDREGDRFYDLVSALHKSLRGSHVDAALYYLARLLQGGADPRYLARRLIRVAVEDVGLADPLALRLAVAAKEAYEALGSPEGELALVEAAVYLALAPKSNSLYAAWKKAQEAAKAHPEAEVPLNLRNAPTGLARALGHGEGYAYYHEDKEGSFAQRYLPEGLEGLTLFEATGEGWEERVRERLKALRERFQTARRRRG”, which “soluble on expression in E. coli” value is on record?
A: The value was “soluble”.

Q: With “MRFERFVGIDPSLRTGFVALSPFGEVIEAKEIEKEGDDPARMSKLIQVVVDSVHDTDFVAIEGFGYASQRGFLLGGIGWGMRMELYRRGIPYIDVAPSLLKKFAGAKGNANKEKVVLEVYKRWGFESDSNNVIDAFVLAQIARAAKTETKLIQAQKEVLNKLFK” as the sequence, how does the “soluble on expression in E. coli” value read?
A: Its value is “not soluble”.

Q: For “MRFSREALLELEASRLAPYAQKARDTRGRAHPEPESLYRTPYQKDRDRILHTTAFRRLEYKTQVLPGWAGDYYRTRLTHTLEVAQVSRSIARALGLNEDLTEAIALSHDLGHPPFGHTGEHVLNALMQDHGGFEHNAQALRILTHLEVRYPGFRGLNLTYEVLEGIATHEAAYSPGFKPLYEGQGTLEAQVVDLSDAIAYAAHDLDDGLRAGLLHPEELKEVELLQALALEEGLDLLRLPELDRRVLVRQLLGYFITAAIEATHRRVEEAGVQSAEAVRRHPSRLAALGEEAEKALKALKAFLMERFYRHPEVLRERRKAEAVLEGLFAAYTRYPELLPREVQAKIPEEGLERAVCDYIAGMTDRFALEAYRRLSP”, which “soluble on expression in E. coli” value is on record?
A: The value was “soluble”.

Q: Which “soluble on expression in E. coli” value does the source give for “MRGLAVLVLLVFAVQVAAAEDFRPVVFVHGLAGSAGQFESQGMRFAANGYPAEYVKTFEYDTISWALVVETDMLFSGLGSEFGLNISQIIDPETLDKILSKSRERLIDETFSRLDRVIDEALAESGADKVDLVGHSMGTFFLVRYVNSSPERAAKVAHLILLDGVWGVDAPEGIPTLAVFGNPKALPALGLPEEKVVYNATNVYFNNMTHVQLCTSPETFAVMFEFINGYKPATTDIVPQDGDYVKVKGKFLAFATNGDVSGWLSIYPIDENGKRLTRLPVKFMRVKGDFEVRLRKGQLYEFQFRKDFSPIIYHYYRAPFVRDDLWARFLVSKPPLDVELLILPERLSPAAKETSGLLLIRYKEMIGEYDEEIGGVDEVYVNGVNVCTERICPIERAVNGLWVFDRGADGKSDLDREVVRYSIMPFMSAADLVVPAEGTISIAVKSRTGGEESFTIPAWSADRHSIIVQFSDYIVDKLAAALEH” here?
A: The value was “soluble”.

Q: With “MRGNKGGERSRTFTVQARIVGRWQHPCSPRPEGRVHPQLPPHAAATRLACVRLYKHCGICGTPTHAVSHRNDTHDGDSAPTRCPRAEMPLSKKSSSLRQAIPCSVLFAADPLQVPSNACVGNRLSTVRRQHQFSASRHTKHAPSVAEDGNGIPRPPPVSVGAGVVDNANEPFAEYARLSTSLASRAHVEPFSSAPMSSFASCPYVAASSHGSTTMSKALRRLPTTVTALPGMAPPPPTISAAVPRNGHRTAGRTSAPLRVHLVHRTRSPPGLAHSPPAYSSTVTTSMPHEIPPTSALVLPYCTDAQLRNLFATLFVRTGDATWSVHQHILPFLTVRQHCNLSAAPSQVTAFFGLTSHSDEDVHEKGATGAAGHQGEQAFFGGPWATKEMNRVASQLCYSFVYVGILGCGEEMCWDTLPMPLGGIPALARRSPVRNAYNTGSTSASQSPVTRSSSSSAHPATPEKQCLCPTPHRSLRNSPCVSSSALGVVALMEGLKQHQPSRMVEDGGADDDEGGPKSTVLYHTDQLESSTLDVVTTSTLTSVEFRGVVEAPPLVQEVAFVRGATRSYKLSWETARGSLHT” as the sequence, how does the “soluble on expression in E. coli” value read?
A: Its value is “soluble”.

Q: With “MRGSHHHHHHDDYDGIPNLTAVQISPNADPALGLEYPVRPPVPGAGGLNASAKGIHSIAIGATAEAAKGAAVAVGAGSIATGVNSVAIGPLSKALGDSAVTYGAASTAQKDGVAIGARASTSDTGVAVGFNSKADAKNSVAIGHSSHVAANHGYSIAIGDRSKTDRENSVSIGHESLNRQLTHLAAGTKDTDAVNVAQLKKEIEKTQENTNKRSAELLANANAYAD” as the sequence, how does the “soluble on expression in E. coli” value read?
A: Its value is “soluble”.

Q: With “MRGSHHHHHHGMASMRILLSNDDGVHAPGIQTLAKALREFADVQVVAPDRNRSGASNSLTLESSLRTFTFDNGDIAVQMGTPTDCVYLGVNALMRPRPDIVVSGINAGPNLGDDVIYSGTVAAAMEGRHLGFPALAVSLNGYQHYDTAAAVTCALLRGLSREPLRTGRILNVNVPDLPLAQVKGIRVTRCGSRHPADKVIPQEDPRGNTLYWIGPPGDKYDAGPDTDFAAVDEGYVSVTPLHVDLTAHSAHDVVSDWLDSVGVGTQW” as the sequence, how does the “soluble on expression in E. coli” value read?
A: The value was “soluble”.

Q: Which “soluble on expression in E. coli” value does the source give for “MRGSHHHHHHGSACELVREMEGVDYLADERKKAGFDVDEMKIVWAGSRHDFELTDRISKLVASDPGFSKEGRTMLPRKELFKNTLRKAAYAWKRIIELRLSQEEATMLRRYVDEPAFTDLHWGMFIPAIKGQGTDKQQEKWLPLAYKMQIIGCYAQTELGHGSNVQGLETTATFDPQTDEFVIHSPTLTSSKWWPGGLGKVSTHAVVYARLITDGKDYGVNGFIVQLRSLEDHKPLPGVTVGDIGMKFGNGAYNSMDNGVLSFDHVRIPRDQMLMRVSQVTKEGKYVQSDIPRQLLYGTMVYVRQSIVADASLAMSRAVCIATRYSAVRRQFGSQNGGQETQVIDYKTQQNRLFPLLASAYAFRFVGEWLKWLYTDVTQRLAANDFSTLPEAHACTAGLKSLTTSATADGIEECRKLCGGHGYLCSSGLPELFAVYVPACTYEGDNVVLQLQVARFLMKTISQLGTGKKPVGTVSYMGRIEHLMQCRSDVKQAEDWLKPSAVLEAFEARSARMSVACAKNLSKFENQEEGFAELAADLVEAAVAHCQLIVVSKYIEKLQQNIPGKGVKQQLEVLCGIYSLFILHKHQGDFLGTGYITSKQGSLANDQLRALYSQLRPNAVSLVDAFNYTDHYLGSILGRYDGNVYPKLYEAAWKDPLNKSDIADGFHEYIRPLLKQQLRTAKL” here?
A: The value was “soluble”.

Q: With “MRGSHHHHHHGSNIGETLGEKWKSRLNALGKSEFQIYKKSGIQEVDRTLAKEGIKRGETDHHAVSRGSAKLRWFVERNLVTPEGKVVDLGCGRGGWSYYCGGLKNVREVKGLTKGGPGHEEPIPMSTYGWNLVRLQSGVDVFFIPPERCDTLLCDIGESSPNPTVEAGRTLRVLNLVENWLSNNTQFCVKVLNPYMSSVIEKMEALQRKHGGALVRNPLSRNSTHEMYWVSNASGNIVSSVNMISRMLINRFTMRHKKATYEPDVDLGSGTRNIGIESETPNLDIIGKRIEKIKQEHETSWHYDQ” as the sequence, how does the “soluble on expression in E. coli” value read?
A: The value was “soluble”.
